Results as given in paper doi:10.1101/659037.

How the values were obtained:
[1] = biological target: rPrP90-231 (globular domain of recombinant prion protein) (murine, UniProt P04925 90-231); test: ITC
[2] = biological target: rPrP23-231 (full-length recombinant prion protein) (murine, UniProt P04925 23-231); test: ITC

Binder: TGGTGGTAACAGACCCTTCCACGGC (ssDNA) [A2]
- Kd [1]: 1930 nM
- Kd [2]: 1470 nM

Binder: CCGCGTACAATCGAGCTCGGGTGTC (structured_DNA) [A1]
- Kd [1]: 232 nM
- Kd [2]: 838 nM
